Results reported in US20240285753A1 (DUKE UNIVERSITY, published 2024).
Changes are numbered by the printed parent chain. Like-named read-outs stand apart in the source and are kept apart here.

Tests used:
[1] = target: T1, S2hlx-Ex25; assay: ELISA; antigen coated, mAb titrated
T1 chain: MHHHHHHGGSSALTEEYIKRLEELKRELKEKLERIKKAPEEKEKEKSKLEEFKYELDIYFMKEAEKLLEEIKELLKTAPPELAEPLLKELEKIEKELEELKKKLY

[2] = target: T2, SARS-CoV-2 spike (WA-2, 2P) (SARS-CoV-2, UniProt P0DTC2 14-1208); assay: ELISA, coated antigen, mAb titrated
[3] = target: T3, FP-13; assay: ELISA, coated antigen, mAb titrated
T3 epitope scaffold: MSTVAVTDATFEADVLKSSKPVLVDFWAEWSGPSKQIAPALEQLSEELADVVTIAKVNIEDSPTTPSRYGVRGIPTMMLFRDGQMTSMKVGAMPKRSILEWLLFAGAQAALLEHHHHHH

[4] = target: T2, SARS-CoV-2 spike (WA-2, 2P); assay: ELISA, coated spike, mAb titrated
[5] = target: SARS-CoV-2 spike (WA-2, 2P) (SARS-CoV-2, UniProt P0DTC2 14-1208)
[6] = target: T4, S2hlx-Ex15; assay: SPR, mAb captured, antigen as analyte
T4 chain: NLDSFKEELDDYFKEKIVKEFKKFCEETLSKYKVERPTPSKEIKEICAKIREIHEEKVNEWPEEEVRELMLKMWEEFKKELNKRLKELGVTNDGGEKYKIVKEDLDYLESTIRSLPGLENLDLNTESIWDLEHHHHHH

[7] = target: T5, S2hlx-Ex17; assay: SPR, mAb captured, antigen as analyte
T5 chain: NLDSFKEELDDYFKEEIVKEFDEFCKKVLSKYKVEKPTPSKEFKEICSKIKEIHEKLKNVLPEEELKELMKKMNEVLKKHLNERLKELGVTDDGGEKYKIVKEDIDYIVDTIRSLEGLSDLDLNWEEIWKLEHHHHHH

[8] = target: T6, S2hlx-Ex20; assay: SPR, mAb captured, antigen as analyte
T6 chain: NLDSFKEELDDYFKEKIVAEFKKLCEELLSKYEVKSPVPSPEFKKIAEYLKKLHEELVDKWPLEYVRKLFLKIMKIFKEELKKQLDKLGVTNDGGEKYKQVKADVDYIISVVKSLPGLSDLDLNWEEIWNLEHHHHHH

[9] = target: T1, S2hlx-Ex25; assay: ELISA; antigen coated, mAb titrated
[10] = target: T4, S2hlx-Ex15; assay: ELISA; antigen coated, mAb titrated
[11] = target: T7, S2hlx-Ex15 F1148A; assay: ELISA; antigen coated, mAb titrated
T7 epitope scaffold: T4 chain with F5A

[12] = target: T8, S2hlx-Ex37; assay: SPR, mAb captured, scaffold as analyte
T8 chain: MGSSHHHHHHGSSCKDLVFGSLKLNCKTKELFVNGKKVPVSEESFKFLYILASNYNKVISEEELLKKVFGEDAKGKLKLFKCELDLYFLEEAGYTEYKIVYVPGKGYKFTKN

[13] = target: T9, S2hlx-Ex34; assay: SPR, mAb captured, scaffold as analyte
T9 chain: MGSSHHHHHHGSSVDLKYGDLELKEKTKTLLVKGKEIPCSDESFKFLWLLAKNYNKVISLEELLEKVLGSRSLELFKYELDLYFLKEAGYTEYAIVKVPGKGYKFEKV

[14] = target: T10, S2hlx-Ex54; assay: SPR, mAb captured, scaffold as analyte
T10 chain: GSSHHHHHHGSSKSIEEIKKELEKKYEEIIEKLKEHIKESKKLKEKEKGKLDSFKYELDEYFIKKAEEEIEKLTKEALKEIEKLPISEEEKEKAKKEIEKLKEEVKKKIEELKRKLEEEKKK

[15] = target: T11, S2hlx-Ex8-Trx; assay: SPR, mAb captured, antigen as analyte
T11 chain: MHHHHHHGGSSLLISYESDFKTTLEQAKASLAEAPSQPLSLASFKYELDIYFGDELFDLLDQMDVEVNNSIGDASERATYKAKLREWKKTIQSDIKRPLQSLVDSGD

[16] = target: T9, S2hlx-Ex34; assay: SPR, mAb captured, antigen as analyte
[17] = target: T1, S2hlx-Ex25; assay: SPR, mAb captured, antigen as analyte
[18] = target: T9, S2hlx-Ex34; assay: ELISA; antigen coated, mAb titrated
[19] = target: T12, S2hlx-Ex35; assay: ELISA; antigen coated, mAb titrated
T12 chain: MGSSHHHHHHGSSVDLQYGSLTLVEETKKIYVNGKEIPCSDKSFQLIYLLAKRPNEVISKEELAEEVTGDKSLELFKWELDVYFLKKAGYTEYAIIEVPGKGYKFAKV

[20] = target: T4, S2hlx-Ex15; assay: SPR, mAb captured, antigen as analyte
[21] = target: T5, S2hlx-Ex17; assay: SPR, mAb captured, antigen as analyte
[22] = target: T6, S2hlx-Ex20; assay: SPR, mAb captured, antigen as analyte
[23] = target: S2hlx-Ex2-Trx; assay: ELISA, coated antigen, mAb titrated
[24] = target: S2hlx-Ex4-Trx; assay: ELISA, coated antigen, mAb titrated
[25] = target: T13, S2hlx-Ex46; assay: SPR, single cycle; mAb captured on Protein A, epitope scaffold as analyte
T13 epitope scaffold: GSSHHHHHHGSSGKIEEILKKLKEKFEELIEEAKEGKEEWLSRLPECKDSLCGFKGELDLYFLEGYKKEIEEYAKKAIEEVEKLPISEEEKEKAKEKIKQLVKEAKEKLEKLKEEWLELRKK

[26] = target: T8, S2hlx-Ex37; assay: as above
[27] = target: T10, S2hlx-Ex54; assay: as above
[28] = target: T13, S2hlx-Ex46; assay: ELISA; antigen coated, mAb titrated
[29] = target: T9, S2hlx-Ex34; assay: ELISA; antigen coated, mAb titrated
[30] = target: T10, S2hlx-Ex54; assay: ELISA; antigen coated, mAb titrated
[31] = target: T2, SARS-CoV-2 spike (WA-2, 2P); assay: ELISA, coated spike, mAb titrated; remark: listed apart in the source

B1: Cov44-26 (antibody, V domains shown)
VH: QVQLVQSGAEVKKPGASVKVSCKASGYTFSNFYMNWVRQAPGQGLEWVGLISPSAGYTAYAQMFQGRVTMTRDTSTSTVYMELSSLRSEDTAVYYCARVAVAGPNDYWGQGTLVTVSS
VL: EIVLTQSPGTLSLSPGERATLSCRASQSISSSYLAWYQQKPGQAPRLVIFAASTRATGIPDRFSGSGSGTDFTLTITRLEPEDFALYYCQHYRSSPPLWTFGQGTKVEIR
EC50 (read off the curve) [1]: ~0.02 mg/L

B2: inferred UCA of DH1501.1, DH1501.2 and DH1501.3 (antibody, V domains shown)
VH: QVQLVQSGAEVKKPGASVKVSCKASGYTFTSYYMHWVRQAPGQGLEWMGIINPSGGSTSYAQKFQGRVTMTRDTSTSTVYMELSSLRSEDTAVYYCARMSRYGAFDIWGQGIMVTVSS
VL: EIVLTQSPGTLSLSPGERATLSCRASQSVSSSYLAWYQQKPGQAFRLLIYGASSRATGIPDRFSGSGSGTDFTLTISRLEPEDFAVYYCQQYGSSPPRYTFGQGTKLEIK
EC50 (read off the curve) [2]: ~0.02 mg/L

B3: COV44-79 (antibody, V domains shown)
VH: QVQLVESGGGVVQPGRSLRLSCAASGLTFSGYAMHWVRQAPGKGLEWVAVISRDARNKYYADSVKGRFTISRDNSKKTVYLEMNSLRVEDTAVYYCAILIIPGITEPGSPDALDIWGQGTMVSVSS
VL: DIQMTQSPSSMSASVGDRVTITCRASQDISKWLAWYQQRPGKAPKLLIYAASSLQSGVPSRFSGSGSGTDFTLTISSLQPEDFATYYCQQASSFPWSITFGQGTRLEIR
EC50 (read off the curve) [3]: ~3 mg/L

B4: DH1498 (antibody, V domains shown)
VH: QVQLQESGPGLVKPSETLSLTCAVSGGSVSSDTYYWSWIRQPPGKGLEWIGYIYNSGSTNYNPSLKSRVTISVDTSKSQFSLNLGSVTAADTAVYYCAREGAGTYPPKNDAFDIWGQGTLVTVSS
VL: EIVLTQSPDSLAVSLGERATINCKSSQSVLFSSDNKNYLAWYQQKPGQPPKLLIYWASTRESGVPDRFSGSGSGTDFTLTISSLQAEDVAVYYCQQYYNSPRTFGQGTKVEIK
EC50 (read off the curve) [4]: ~0.04 mg/L

B5: CC40.8 mAb (antibody, V domains shown)
VH: EVQLLESGGGLVQPGGSLRLSCAASGFTFSSYVMTWARQAPGKGLEWVSAISGTGYTYYADSVKGRFTVSRDNSKNTLFLQMSSLRAEDTAVYYCAITMAPVVWGQGTTVTVSS
VL: SYELTQPPSVSVSPGQTARITCSGDALPKRYAYWYQQKSGQAPILVIYEDKKRPSGIPERLSGSKSGTVATLTISGAQVEDEADYYCYSTDSSGNHAVFGGGTQLTVL
Kd [5]: 0.0027 µM
Kd [6]: 0.0034 µM
Kd [7]: 0.0271 µM
Kd [8]: 0.0106 µM
EC50 (read off the curve) [9]: ~0.01 mg/L
EC50 (read off the curve) [10]: ~0.02 mg/L
EC50 (read off the curve) [11]: ~0.02 mg/L
Kd [12]: 0.849 µM
Kd [13]: 0.486 µM
Kd [14]: 0.15 µM
Kd [15]: 1.23 µM
Kd [16]: 3.88 µM
Kd [17]: 12.1 µM
EC50 (read off the curve) [18]: ~0.1 mg/L
EC50 (read off the curve) [19]: ~0.8 mg/L
Kd [20]: 0.0034 µM
Kd [21]: 0.0271 µM
Kd [22]: 0.0106 µM
EC50 (read off the curve) [23]: ~0.1 mg/L
EC50 (read off the curve) [24]: ~0.05 mg/L
Kd [25]: 21.5 µM
Kd [26]: 0.849 µM
Kd [27]: 0.15 µM
EC50 (read off the curve) [28]: ~0.2 mg/L
EC50 (read off the curve) [29]: ~0.4 mg/L
EC50 (read off the curve) [1]: ~0.2 mg/L
EC50 (read off the curve) [30]: ~0.04 mg/L

B6: DH1509 (antibody, V domains shown)
VH: QVQLVESGGGVVQPGRSLRLSCAASGFTLSSHGIHWVRQAPGKGLEWVAVTSFDGRNKKFGDSVKGRFTISRDNSKNTVYLQMNSLRTEDTAVYYCAKDWGDDYSRWYFDLWGRGTLVTVSS
VL: DIQMTQSPSSLSASVGDRVTITCQASHDITKYLNWYQQKPGRAPKLLIYDASNLKTGVPSRFSGSGSGTDFTFTITSLQPEDLATYYCQQSDVLPITFGQGTRLEIK
EC50 (read off the curve) [31]: ~0.6 mg/L
